This series can be described thus: yeast display, Sf9 membrane polyspecificity reagent, FACS + sequencing; frameworks hold sequencing errors. The method in brief:
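In a synthetic yeast display library (Saccharomyces cerevisiae BJ5465), nanobody expression was induced with galactose for 36–48 hours. FACS gates were set low and high (top ~1%) using anti-HA fluorescence for expression and streptavidin fluorescence for binding of the Sf9 membrane reagent. Each polyreactivity label is drawn from the gate of origin.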
For “QVQLVESGGGLVQAGGSLRLSCAASGRIFKYNAMGWYRQAPGKERELVAVISFSGGSTYYADSVKGRFTISRDNAKNTVYLQMNSLKPEDTAVYYCNVRQHYSRRLKKWQMDCWGQGTQVTVSS”, the “polyreactivity (PSR sort gate)” value is listed as “high polyreactivity”. With “QVQLVESGGGLFQAGGSLRLSCAASGFIFPINAMGWYRQAPGKERELVAAITSGGRTNYADSVKGRFTISRDNAKNTVYLQMNSLKPEDTAVYYCNAVVFVLNVEYYPWLLNNYWGQGTQVTVSS” the entry was “low polyreactivity”; with “QVQLVESGGGLVQAGGSLRLSCAASGRIFGHNSMGWSRQPPWKEMELVATISSGVRTNYADSVKGRFTISRDNAKNTVYLQMNSLKPEDTAVYYCATKTYQFGYSSYYYWGQGTQVTVSS”, “high polyreactivity”.

Consider “QVQLVESGGGLVQAGGSLRLSCAASGYIFDRYAMGWSRPAPGKERELVAAISGRGGSTYYADSVKGRFTISLDNAKNTVYLQMNSLKPEDTAVYYCNALVQGKEYYWGQGTQVTVSS”, for which the “polyreactivity (PSR sort gate)” value is “high polyreactivity”. Turning to “QVQLVESGGGLVQAGGSLRLSCAASGSTFSYNAMGWYRPAPGKERELVAAISGSGGTTYYADSVKGRFTISRDNAKNTVYLQMNSLKPEDTAVYYCNAYVRRTRDYDYWGQGTQVTVSS”, the “polyreactivity (PSR sort gate)” value is “high polyreactivity”. Consider “QVQLVESGGGLVQAGGSLRLSCAASGFNYSQYAMGWYRQAPGKERELVAAITTTGGSTYYADSVKGRFTISRDNAKNTVYLQMNSLKPDDTAVYYCAARYVRTVRGGYWGQGTQVTVSS”, for which the “polyreactivity (PSR sort gate)” value is listed as “high polyreactivity”. The same measure for “QVQLVESGGGLVQAGGSLRLSCAASGRIFNANAMGWYRHAPGKERELVAAISSSGGSTYYADSVKGRFTISRDNAKNTVYLQMNSLNPEDTAVYYCNADWGWRYSSDFDYWGQGTQVTVSS”: “low polyreactivity”; for “QVQLVESGGGLVQAGGSLRLSCAASGRISNRYAMGWYRQAPGKERELVAAIRRSTTSTYADSVKGRFTISRDNEKNTFYLQMNSLKPEYTAVYYCAARGGRRGGYYSWGQGTQVTVSA”: “high polyreactivity”; for “QVHLVESGGGLVQAGGSLRLSCAASGNIFGLYAMGWYRQAPGKERELVAAIRWIGGRTYYADSVKGRFTISRDNAKNTVYLQMNSLKPEDTAVYYCNAEYIVYYRGYDYWGHGTQVTVSS”: “high polyreactivity”. With “QVQLVESGGGLVQAGGSLRLSCAASGNTFLRNTMGWYRQAPGKERELVAAISWGGGTTYYADSVKGRFTISRDNAKNTVYLQINSLKPEDSAVYYCNARYYSRRGNSWGQGTQVTVSS” the entry was “high polyreactivity”; with “QVQLVESGGGLVQAGGSLSLSCAASGRIFPPYAMGWYRPAPGKERELVAAISVSGSNTYYADSVKGRFTISRYNAKNTVYLQMNSLKPEDTAVYYCNAKRYSPVYYWYDYCGQGTQVTVSS”, “high polyreactivity”; with “QVQLEESGGGLEQAGGSLRLSCAATGSIFNFYAMAWYIRAPGKERELVAAITRSGGSTYYADSVKGRFTISRDNAKNTVYLQMNSLIPEDTAVYYCSAASRKRTSREPLDYWGQGTQVTVSS”, “high polyreactivity”.

As for “QVQLVESGGGLDQAGGSLRLSCAASGFTFRKNAMGWYRQAPGKERELVAVISYSGGSTYYADSVNGRFTISRDSANNTVYLQMNSQKPEDSAVYYCNAVGWTRYWRIGWSAYYYWGQGTQVTVSS”, the “polyreactivity (PSR sort gate)” value was “high polyreactivity”.

On to “QVQLVESGGGLVQAGGSLRLSCAASGFTFGSYAMGWYRQAPGKERELVAAITSRGGSTYYADSVKGRFTISRDNAKNTVYLQMNSLKPEDTAVYYCNAVLPVYRTNMDYWGQGTQVTVSS”, for which the “polyreactivity (PSR sort gate)” value is reported as “high polyreactivity”. The same measure for “QVQLVESGGGIVQAGGSLRLSCAASGSIFNIYAMGWYRQAPGKERELVAAIRWTGGSTYYADSVKGRFTISRDNAKNTVYLQMNILIPEDTAVYYCAADPWYPRGYYWGQGTQVTVSS”: “high polyreactivity”. With “QVQLVESGGGLVQAGGSLRLSCAASGRTFDIYAMGWYRQAPGKARELVAAISIAGSTNYADSVKGRFTISRDNAKNTVYLQMNSLKPEDTAVYYCAAAKPKKSRGSAYEYWGQGTLVTVSS” the entry was “high polyreactivity”; with “QVQLVESGGGLVQAGGSLRLSCAASGITLYGYTMGWYRQAPGKERELVAGISRGGSTYYADSVKGRFTISRDNAKNSVYLEMNSLKPDVTAVYYCAAAGWYRGDYWGQGTQVTVSS”, “high polyreactivity”. With “QVQLVESGGGLVQAGGSLRLSCAASGSILEIYAMGWYRQAPGKESEFVASISWDVSSTYYADSVKGRFTISRDNAKNTVYLQMNSLKPEDTAVYYCATSLVWGLYDWYYDLSAAFDYWGQGTQVTVSS” the entry was “low polyreactivity”; with “QVQLEESGGGLVQAGRSLRLISAASGRMFGWNAMGWYRQAPWKERELVASIRSGGRTNYADSVKGRFTISRDNAKNTVYLQMNSLKPEDTAVYYCAVGPYYQSTQIYDYWGQGTQVTVSS”, “low polyreactivity”; with “QVQLVESGGGLVQAGGSLRLSCAASGYTFIVNAMGWYRQAPGKERELVAAITSGGGTYYADSVKGRFTISRDNAKNTVYLQMNCLKPEDTAVYYCAARSGYRYVESDYWGQGTQVTVSS”, “high polyreactivity”.

With “QVQLVESGGGLDQAGGSLRLSCAASGITFYGYTMGLYRQAPGKERELVATITRGGSTYYADSVKGRFTISRDNAKNTVYLQMNSLKPEDTAVYYCAAESQYDYGVEYDYWVQGTQVTVSS”, the “polyreactivity (PSR sort gate)” value is given as “low polyreactivity”. Regarding “QVQLVESGGGLVQAGGSLRLSCAASGGTFRGYTMGWYRPAPGKERELVAAITRIGGSTYYADSVKGRFTISRDNAKYTVYLQMNSLKPEDTAVYYCAARGGVPYSNAYDFWGQGTQVTVSS”, the “polyreactivity (PSR sort gate)” value was “low polyreactivity”.

Turning to “QVQLVESGGGLVQAGGSLRLSCAASGFIFGSNAMGWYRQAPGKERELVAAISRSGGSTYYADSVKGRFTISRDNAKNTVYLQMNSLKPEDTAVYYCNVVLWPFVYSWWSYDYWGQGTQVTVSS”, the “polyreactivity (PSR sort gate)” value is “high polyreactivity”.

Consider “QVQLVDSGGGLVQAGGSLRLSCAASGRTIYNYDMGWYRQAPGKERELVARIFSGGSTNYADSVKGRFTISRDNAKNTVYLQMNSLKPEDTAVYYCNAVLESQFIGWKFFYWGQGTQVSVSS”, for which the “polyreactivity (PSR sort gate)” value is “high polyreactivity”. The same measure for “QVQIVESGGGLDQAGGSLRLSCAATGSTFYWNAMGWYRQAPWKERELVAAISSGGSTYYADSVKGRFTISRDNAKNTVYVQMNSLKPEDTAVYYCAAEWYPYPWGYGYWGQGTQVTVSS”: “low polyreactivity”; for “QVQLLESGGGLVQAGGRHRLSCAASGRTFPGNAMGWYRKAPGKERELVAAISWSVDRTYYADSVKGRFTISRDNAKNTVYLQMNSLKPEDTSVYYCAAVEWWSSSLRMYYWGQGTQETVSS”: “low polyreactivity”. With “QVQLVESGGGLVQAGGSLRLSCAASGIIFQTYAMGWYRQAPGKERELVAAISRTGGSTYYADSVKGRFTISRDNAKITVYVQMHSLKPEDTAVYSCAAPRFAAPLRIGYVWGQVTQVTVSS” the entry was “high polyreactivity”; with “QVQLVESGGGLVQAGCSLRLSCAASGGTFGRYAMGWYRQAPGTERELVASITTGGRTNYADSVKGRFTISRDNAKNTVYLQMNSLKPEDTAVYYCAKKRYGYPVPFYYWGQGTQVTVSS”, “high polyreactivity”; with “QVQLVESGGGLVQAGGSLRLSCAGSGSTLAIYAMGWYRHAPGKERELVAAISGGGSTYADSVKGRFTISRDNAKNTVYLQMISLKPEDTAVYYCNADGWGDRFWSNFRFDYWGQGTQVTVSS”, “low polyreactivity”. The same measure for “QVQLVESGGGLVQAGGSLRLSCAASGIIFQYYAMGGYRQAPGKERELVAAISWSGGSTYYADSVKGRFTISRDNAKNTVYLQMNSLKPEDTAVYYCAARSRSFWPYEGDYWGQGTQVTVSS”: “low polyreactivity”.

For “QVQLVESGGGLVQAGGSLRLSCAASGRTFAIYTMVWSRQAPGKERELVATISGSAGNTYYADSVKGRFTISRDNAKNTVYLQMNSLKPEDTAVYNCAARQRKARQIVLLDYWGQGTQVTVSS”, the “polyreactivity (PSR sort gate)” value is recorded as “high polyreactivity”. With “QVQLVESGGGLVQAGGSLRLSCAASGSTFRVNAMGWYRQAPGKERELVAAISYRGGSTYYADSVKGRFTISRDNAKNTVYLQMINLKPEDTAVYYCNADLKRRTYGPDSYYWGQGTQVTVSS” the entry was “high polyreactivity”; with “QVQLVESGGGLVQSGCSLRLSCAASGSTFYRYAMGWYRQAPGKERELVAAITSAGSTNYADSVKGRFTISRDNAKNTVYLLMNSLKPEDTAVYYCAADHGRPYFSYDYWGQGTQVTVSS”, “low polyreactivity”; with “QVHLVASGGGLVQAGGSLRLRCAASGFTIDTYAKGWYRQAPGKERDLVAGISWSGGSTYYADSVKGRFTISRDNAKNTVYLQRNSLNPEDTAVYYCAADYAGYPGRTRQRPGYDYWGQGTQVTVSS”, “low polyreactivity”. The same measure for “QVQLVESGGGLVQAGGSLRLSCAASGRILYFYIGWYRQAPGTEREFVADISSTTSTYYADSVKGRFTISRDNAKNTVYLQMKSLKPEDTAVYYCAAPGDGYAYPIVWYGYSGYYYWGQGTQVTVSS”: “low polyreactivity”; for “QVQLVESGGGLVQAGGSLRLSCAASGRNFLYNAMGWYRQAPGKERELVAVISKRGGRTYYADSVKGRFTISRDNAKNTVYLQMNSLKPEDTAVYYCAAAYVTPPGPLRYNEYYWGQGTQVTVSS”: “high polyreactivity”; for “QVQLVESGGGLVQAGGSLRLSCAASGYIFGGYAMGWYRQATGKERELVPGISIGVGSTYYADSVKGRFTISRDNAKNTVYLQMNSLKPEDSAVYYCNRVSVGYDYWGQGTQVTVSS”: “low polyreactivity”.

Consider “QVQLVESGGGLVQAGGSLRLSCAASGFTFYGNAMGWYRQAPGKERELVAAISLSDGYADSVKGRFTISRDNAKNTVYLLMNSLKPEDTAVYYCAKDRTDSKRREHDYWGQGTQVTVSS”, for which the “polyreactivity (PSR sort gate)” value is “low polyreactivity”. With “QVQLVESGGGLVQAGGSLRLSCAASGIIFGTYAMGWYRQAPGKERELVAAIRRSGTGTYYADSVKGRFTISRDNAKNTVYLQMNSLKPEDTAVDYCNVVRSYAYDSWGQGTQVTVSS” the entry was “high polyreactivity”; with “QVQLVESVRGLVQAGGSLRLSCAASGFIFRSYAMGWYRQAPGKEREFVAAISRSGGRTYYADSVKGRFTISRDNAKNTVYLQMNCLKPEDTAVYYCAATVGGSYTFDYWGQGTQVTVSS”, “high polyreactivity”. In the case of “QVQLVESWGGLVQAGGSLRLSCADSGSIFGYYAMGWSRHAPGKETELVAAISSGGRTDYADSVKGRFTISRDNAKNTVYLQMNSRKQEDTAVYYCAALQRTGPYAGSSGYWGQGTQVTVSS”, the “polyreactivity (PSR sort gate)” value is “high polyreactivity”.

(Values after the nanobody polyreactivity screen of Harvey et al. (2022).)
